From patent US20250320281A1

What was measured:
Experiment in all cases: cell-based or functional assay
[1] = target: HIV-1 Env of isolate VLGCA1 (clade A pseudovirus) (HIV-1)
[2] = target: HIV-1 IAVI-C22 envelope glycoprotein (Env) on pseudovirus (HIV-1)
[3] = target: HIV-1 envelope glycoprotein (Env) of isolate MGRM-A-007, clade A (HIV-1)
[4] = target: HIV-1 Env of isolate 97ZA012 (clade C) (HIV-1 isolate 97ZA012)
[5] = target: HIV-1 Env of pseudovirus MGRM-F1-016 (HIV-1)
[6] = target: HIV-1 Env of pseudovirus MGRM-F1-018 (HIV-1)
[7] = target: HIV-1 Env of pseudovirus MGRM-Chronic-B-010 (HIV-1)
[8] = target: HIV-1 Env of isolate MGRM-D-019 (clade D pseudovirus) (HIV-1)
[9] = target: HIV-1 Env of pseudovirus MGRM-G-019 (HIV-1, clade G isolate MGRM-G-019)
[10] = target: HIV-1 Env of isolate MGRM-D-016 (clade D pseudovirus) (HIV-1)
[11] = target: HIV-1 Env of pseudovirus MGRM-AE-004 (clade CRF01_AE) (HIV-1)
[12] = target: HIV-1 envelope glycoprotein (Env) of isolate 92RW020, clade A (HIV-1)
[13] = target: HIV-1 envelope glycoprotein (Env) of isolate 92UG031, clade A (HIV-1)
[14] = target: HIV-1 Env of isolate MGRM-D-011 (clade D pseudovirus) (HIV-1)
[15] = target: HIV-1 Env of isolate MGRM-G-004 (HIV-1)
[16] = target: HIV-1 MGRM-D-001 Env (pseudovirus) (HIV-1)
[17] = target: HIV-1 Env of isolate 94UG103 (HIV-1)
[18] = target: HIV-1 Env of isolate MGRM-AG-012 (subtype AG) (HIV-1)
[19] = target: HIV-1 Env of isolate JRFL (subtype B) (HIV-1)
[20] = target: HIV-1 envelope glycoprotein (Env) of isolate MGRM-C-007 (HIV-1)
[21] = target: HIV-1 Env of isolate MGRM-A-003 (HIV-1)
[22] = target: HIV-1 Env of isolate MGRM-C-026 (pseudovirus) (HIV-1)
[23] = target: HIV-1 Env of isolate MG RM-D-014 (HIV-1)
[24] = target: HIV-1 Env of isolate CAAN.A2 (subtype B) (HIV-1)
[25] = target: HIV-1 Env of isolate 92UG031 (HIV-1)
[26] = target: HIV-1 Env of isolate 93MW959 (subtype C) (HIV-1)
[27] = target: HIV-1 envelope glycoprotein (Env) of isolate MGRM-C-017 (HIV-1)
[28] = target: HIV-1 Env of isolate MGRM-AG-008 (subtype AG) (HIV-1)
[29] = target: HIV-1 envelope glycoprotein (Env) of isolate MGRM-C-012 (HIV-1)
[30] = target: HIV-1 Env of isolate MGRM-Chronic-B-002 (subtype B) (HIV-1)
[31] = target: aMLV envelope, on pseudovirus (negative control virus)
[32] = target: HIV-1 Env of isolate MGRM-F1-013 (HIV-1)
[33] = target: HIV-1 Env of isolate MGRM-C-028 (HIV-1)

5345_I01 (PGT-137) (antibody), sequence (VH): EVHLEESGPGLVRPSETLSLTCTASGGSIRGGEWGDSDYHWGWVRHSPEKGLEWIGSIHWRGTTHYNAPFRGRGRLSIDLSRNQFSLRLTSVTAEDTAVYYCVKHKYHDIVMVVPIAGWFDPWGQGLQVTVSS
5345_I01 (PGT-137) (antibody), sequence (VL): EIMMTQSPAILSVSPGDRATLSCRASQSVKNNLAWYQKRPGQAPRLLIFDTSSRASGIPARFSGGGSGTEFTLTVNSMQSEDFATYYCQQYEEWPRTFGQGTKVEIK
4970_K22 (PGT-144) (antibody), sequence (VH): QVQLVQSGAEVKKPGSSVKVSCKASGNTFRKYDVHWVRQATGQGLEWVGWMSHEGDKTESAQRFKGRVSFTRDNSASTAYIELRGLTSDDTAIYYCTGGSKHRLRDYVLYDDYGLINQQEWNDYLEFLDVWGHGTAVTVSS
4970_K22 (PGT-144) (antibody), sequence (VL): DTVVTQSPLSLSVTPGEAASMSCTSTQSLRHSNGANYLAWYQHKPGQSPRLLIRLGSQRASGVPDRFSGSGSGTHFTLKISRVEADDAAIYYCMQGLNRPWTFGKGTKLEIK
4995_E20 (PGT-142) (antibody), sequence (VH): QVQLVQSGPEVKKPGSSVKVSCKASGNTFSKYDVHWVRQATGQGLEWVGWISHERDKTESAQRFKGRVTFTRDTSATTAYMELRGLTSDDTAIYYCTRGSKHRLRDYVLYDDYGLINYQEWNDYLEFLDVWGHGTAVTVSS
4995_E20 (PGT-142) (antibody), sequence (VL): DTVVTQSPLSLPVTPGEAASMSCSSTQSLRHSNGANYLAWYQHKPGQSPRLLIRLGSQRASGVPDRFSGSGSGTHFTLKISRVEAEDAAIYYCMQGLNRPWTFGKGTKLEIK
4980_N08 (PGT-143) (antibody), sequence (VH): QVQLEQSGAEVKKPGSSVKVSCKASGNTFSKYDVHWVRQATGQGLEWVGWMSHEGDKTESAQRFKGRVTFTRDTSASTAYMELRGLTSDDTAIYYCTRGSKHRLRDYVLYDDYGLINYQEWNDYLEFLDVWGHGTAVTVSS
4980_N08 (PGT-143) (antibody), sequence (VL): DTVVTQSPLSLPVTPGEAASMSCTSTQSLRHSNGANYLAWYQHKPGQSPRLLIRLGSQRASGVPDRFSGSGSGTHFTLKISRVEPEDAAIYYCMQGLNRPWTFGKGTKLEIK
4993_K13 (PGT-141) (antibody), sequence (VH): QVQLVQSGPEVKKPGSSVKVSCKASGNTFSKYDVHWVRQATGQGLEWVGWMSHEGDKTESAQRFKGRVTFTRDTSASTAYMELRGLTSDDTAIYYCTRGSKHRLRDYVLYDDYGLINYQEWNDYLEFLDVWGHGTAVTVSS

Substance	IC50 (µg/mL), pseudovirus neutralization [15] [µg/mL]	IC50 (neutralizing activity, pseudovirus) [16] [µg/mL]	IC50 [17] [µg/mL]	IC50 (µg/mL), pseudovirus neutralization [18] [µg/mL]	IC50 neutralization [19] [µg/mL]	IC50 (µg/mL), pseudovirus neutralization [20] [µg/mL]	IC50 [21] [µg/mL]	Primary Neutralization Index (B cell culture supernatant) [22]	IC50 (µg/mL), pseudovirus neutralization [23] [µg/mL]	IC50 neutralization [24] [µg/mL]	IC50 [25] [µg/mL]	IC50 neutralization [26] [µg/mL]	IC50 (µg/mL), pseudovirus neutralization [27] [µg/mL]	IC50 (µg/mL), pseudovirus neutralization [28] [µg/mL]	IC50 (µg/mL), pseudovirus neutralization [29] [µg/mL]	IC50 neutralization [30] [µg/mL]	other results
1496_C09 (PG9) (TCN-109) (antibody)																	IC50 (µg/ml), pseudovirus neutralization [1]: 0.07 µg/mL; IC50, pseudovirus neutralization [2]: 24.9 µg/mL; IC50 (µg/ml), pseudovirus neutralization [3]: 0.37 µg/mL; IC50 (µg/ml), pseudovirus neutralization [4]: 1.27 µg/mL; IC50 (µg/ml), pseudovirus neutralization [5]: 0.58 µg/mL; IC50 (µg/ml), pseudovirus neutralization [6]: 0.03 µg/mL; IC50 (µg/ml), pseudovirus neutralization [7]: 0.004 µg/mL; IC50 (µg/ml), pseudovirus neutralization [8]: 0.03 µg/mL; IC50 (µg/ml), pseudovirus neutralization [9]: 0.67 µg/mL; IC50 (µg/ml), pseudovirus neutralization [10]: 0.1 µg/mL; IC50 [11]: 0.01 µg/mL; IC50 (µg/ml), pseudovirus neutralization [12]: 0.08 µg/mL; IC50 (µg/ml), pseudovirus neutralization [13]: 3.08 µg/mL; IC50 (µg/ml), pseudovirus neutralization [14]: 0.06 µg/mL
4970_K22 (PGT-144) (antibody)	> 50	> 10															
4980_N08 (PGT-143) (antibody)	> 50	> 10															
4993_K13 (PGT-141) (antibody)	> 50	> 10															
4995_E20 (PGT-142) (antibody)	> 50	> 10															
5114_A19 (PGT-128) (antibody)			0.011	> 50	0.007	0.111	> 50	17.1	0.013	1.48	> 50	0.045	1.06	0.668	0.058	0.036	Polyclonal Transfectant Neutralization Index [22]: 32.2
5136_H01 (PGT-131) (antibody)			1.1	> 50	0.454	> 50	> 50	1.2	0.516	> 50	> 50	> 50	> 50	> 50	> 50	> 50	
5147_N06 (PGT-130) (antibody)			1.4	> 50	0.046	> 50	> 50	3	0.061	> 50	> 50	8.55	> 50	> 50	> 50	> 50	Polyclonal Transfectant Neutralization Index [22]: 1.05; IC50, pseudovirus neutralization [31]: > 10 µg/mL; Neutralization by PGT-130, IC50 [16]: > 10 µg/mL; Neutralization by PGT-130, IC80 [16]: > 10 µg/mL; Neutralization by PGT-130, IC90 [16]: > 10 µg/mL; Neutralization by PGT-130, IC95 [16]: > 10 µg/mL; neutralization IC50 (pseudovirus) [16]: > 10 µg/mL
5345_I01 (PGT-137) (antibody)			> 50	> 50	> 50	> 50	> 50	11.3	> 50	> 50	> 50	> 50	> 50	> 50	0.102	> 50	
PGV04 (antibody)	> 50																
VRC01 (antibody)	> 50																IC50 [32]: 0.17 µg/mL; IC50 (µg/mL), pseudovirus neutralization [33]: 0.319 µg/mL; IC50 [23]: 0.332 µg/mL
